According to patent US20030044914A1 (SALK INSTITUTE FOR BIOLOGICAL STUDIES, published 2003):

How the values were obtained:
[1] = target: T1, hRXRα (human, UniProt P19793 1-462); test: in vitro DNA-binding (gel shift) with in vitro translated proteins
T1 construct: In vitro transcribed and translated protein used in gel shift assays with XOR-6; also called human RXR alpha
T1 sequence (looked up): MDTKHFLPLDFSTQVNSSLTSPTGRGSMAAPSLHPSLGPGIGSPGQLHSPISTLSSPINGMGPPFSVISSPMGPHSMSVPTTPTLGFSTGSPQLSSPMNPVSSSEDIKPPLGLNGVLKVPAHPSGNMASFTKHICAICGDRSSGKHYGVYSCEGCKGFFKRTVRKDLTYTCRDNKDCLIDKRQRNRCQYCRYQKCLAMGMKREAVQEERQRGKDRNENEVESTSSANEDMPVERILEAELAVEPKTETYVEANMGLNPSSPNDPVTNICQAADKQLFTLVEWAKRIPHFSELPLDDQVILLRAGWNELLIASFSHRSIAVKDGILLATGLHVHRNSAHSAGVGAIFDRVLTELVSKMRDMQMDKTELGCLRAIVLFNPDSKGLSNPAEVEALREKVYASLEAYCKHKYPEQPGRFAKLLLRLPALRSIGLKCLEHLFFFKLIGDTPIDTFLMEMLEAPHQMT
Method: DNA-binding analysis was performed using in vitro transcribed, translated proteins (Perlmann et al., 1993, supra. oligonucleotides employed have been described previously (see Umesono et al., in Cell 65:1255-1266 (1990) and Perlmann et al., 1993, supra).
Thus, in vitro transcribed and translated proteins were mixed with a cocktail of hormone response elements containing DR0, DR1, PPRE, DR2, MLV-TRE, SPP1, and β-RARE. Thus, XOR-6 and hRXRα proteins were mixed and incubated with radiolabelled response elements. DR-1 through 5 are direct repeats of the sequence […] separated by 1-5 nucleotides. Reaction conditions and gel electrophoresis employed were as described by Perlmann et al., 1993, supra.

[2] = target: T2, hRARα (human, UniProt P10276 1-462); test: in vitro DNA-binding (gel shift) with in vitro translated proteins and a cocktail of response elements
T2 construct: also called human RAR alpha
T2 sequence (looked up): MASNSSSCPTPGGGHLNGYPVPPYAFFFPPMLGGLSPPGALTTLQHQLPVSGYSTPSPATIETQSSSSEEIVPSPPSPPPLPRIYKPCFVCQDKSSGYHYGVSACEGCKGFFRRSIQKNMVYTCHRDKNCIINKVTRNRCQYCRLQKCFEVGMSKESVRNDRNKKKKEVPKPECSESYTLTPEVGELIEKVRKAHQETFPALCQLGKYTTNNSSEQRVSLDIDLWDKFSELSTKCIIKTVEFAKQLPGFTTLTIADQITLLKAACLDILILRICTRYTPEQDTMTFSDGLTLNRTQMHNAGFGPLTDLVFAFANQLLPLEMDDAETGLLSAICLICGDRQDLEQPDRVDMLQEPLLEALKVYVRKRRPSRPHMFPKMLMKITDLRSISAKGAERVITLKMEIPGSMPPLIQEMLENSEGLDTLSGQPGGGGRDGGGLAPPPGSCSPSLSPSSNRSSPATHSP

binding result [1]: binds | binding result [2]: no binding
B1: XOR-6 (Xenopus Orphan Receptor 6) (receptor)
chain: MWKVQETLVLEEEEEEEDASNSCGTGEDEDDGDPKICRACGDRATGYHFNAMTCEGCKGFFRRAVKRNLRLSCPFQNSCVINKSNRRHCQACRLKKCLDIGMRKELIMSDAAVEQRRALIKRKHKLTKLPPTPPGASLTPEQQHFLTQLVGAHTKTFDFNFTFSKNFRPIRRSSDPTQEPQATSSEAFLMLPHISDLVTYMIKGIISFAKMLPYFKSLDIEDQIALLKGSVAEVSVIRFNTVFNSDTNTWECGPFTYDTEDMFLAGFRQLFLEPLVRIHRMMRKLNVQSEEYAMMAALSIFASYRPGVCDWEKIQKLQEHIALTLKDFIDSQRPPSPQNRLLYPKIMECLTELRTVNDIHSKQLLEIWDIQPDATPLMREVFGSPE
notes: Expressed from pCDG-XOR6 (XOR-6 protein coding region) in CV-1 cells; Full-length, about 386 amino acids; also called full-length XOR-6
